Experimental data taken from the DeepSol protein solubility set.

Assay: soluble on expression in E. coli; label from the status in PepcDB or PDB records

Row | Sequence | soluble on expression in E. coli
1 | MFVRLFYTLRKYGVPVTTRELIDLNRAVAEGLVFADQDEFYQLAKTILVKDERFFDKFDRAIKDYFEGIETFDLDELLKQVQKIPKEWLDLELLEKHLTPEQREALQKAGSLEELMKMLEERLREQHKKHQGGNRMIGTGGTSPFGAFGDHPEGVRIGGPGRKRSAVKVWEQRKYQNLDDDQILGTRQMQLALRRLRKFARQGAADELDVDNTIRETAKQGILNVQMVPERRNRIKVLMLFDVGGSMDSHIAQCEKLFSAAKTEFKTLEYFYFHNCLYDYVWKDNHRRQASRLETWDLFHKYGRDYRVIVVGDASMAPYELRSAGGSVEYMNDEAGEIWLRRLRQHFDKTAWLNPEEEGYWKYTQTIGLIQQLFENHMYPMSLKGIEDMTRYLS | not soluble
2 | MFYCRSGFEKECAGEIQDKATQLEVFGFPRLKNNTGYVLFECYQEGDADRLIREIKFNELIFARQMFAVAAEVSDLPKDDRISPILDALSDVDGVPCCGDIRIETPDTNEAKELLKFCRKFTVPMRQALRGKKMLTERDSNRIPVLHICFIAPGHCYVGYSYTNNNSQFFMGIPRLKFPADAPSRSTLKLEEAFHVFIPKEEWDDRLASGMWGVDLGACPGGWTYQLVKRSMFVHAIDNGMMAQSLMDTGQVKHHMVDGFKFEPPRKNVTWLICDMVEKPARVAHLMGEWLIKGWAKEALFNLKLPMKGRYDEVLQDIENLKDFLKKNGFQYKLQAKHLYHDREEITVHIQAISNISPH | not soluble
3 | MFYYVEILGTLPEMGKAEVEALAELGVGNVEKVDYLLVSGSVKHIGVFERLGLAHEYGLLLYEGDDIKDILDFAKGLEWRNIINGTFAVRRERMRNCMHEVNDLDKKIGGIIHSQGLRVNLSRPDTVVRVYCGNKIWLGIRIREFKGKEFEDRKADRRPFSRPIALPPRIARAMVNLTKATREVLDPFMGTGGMLIEAGLIGLKVYGLDIREDMVEGAKINLEYYGIRDYVVKVGDATKIEEVFPGKTFEAVATDPPYGNSTTLPMDRNELYKRSLESIHSVLEGRLAIAFPADFDARDVAESIGFKVLGRFYQRVHSSLSRYFYVMEV | soluble
4 | MGAKDKATGKSWSDVQQRLQQFHSQEFLNSLRGTTQFAGTDYRSKDLTPKKSRLLADTISAVYLDGYES | not soluble
5 | MGALERFGVDFITVDQGNGQWDIQAIEINLRKGGTTHPFMTLKLLTNGRYELSTGLFYSQQGRPKYYIATDNLQKDRYRGLLPNDLMDIIAHHRLHFDSCTETGTVFHLMGCLSQFGKLGLTSIGDSPQQAEDIYNKVVKVLDEETRVNNKQFPLFSDYTFPNLEHHHHHH | not soluble
6 | MGASRMTEIIDISLDITEDTVVMPENPEFDKERLASIGKEGYELYKICMSNHIGTHIDAPAHFVSEGALINQLDLDTLMGKALVVEIKDEHKISVDELKRVNLKDNIRLLFKTRNSELIAENKLTKDFVYIEEQAAGHLVKNGVKLIGLDYFTIDRIEDQDKPAHKEFAGNGVVVIEGVNLLNVEPGEYELVALPIKINADGAPARVILRRLEHHHHHH | soluble
7 | MGCVSSTSRSTGYYSGYESHEEPRAASRPTNSDDRGYETDSEPSSGNLIPNARSVYSESVLWHGTSMQSKIDLRSKGFDAGRKTGGATAGGNANMFMNLSREAQSETRRHHYLSSSQKEAKDFAMFADTSNPTLVRTIGVRNNLSLITDPRTGGTALMTDQSIPRKFVLGSKSSAPGENAKVFRDEMRAAGHNVSTKQAGELLREVQSDS | not soluble
8 | MGDDLPDWRNKLEPVFLEFEDGCVPEEHYYPCIRRREDEEPKISAEEEYYLMVKEVEDSKGFDIDFAKFRCVFNYRPVDLDDNELALEPETTREFMDRLCRKSLEHFNEIHSTKYEFVRFIKANHHVSAGMMYFITFEGKLLSNDDDSKQFQAKLCYCGGTPEIISCELKP | soluble
9 | MGELNKSARQIVEAVGGAENIAAATHCVTRLRFALIDESKVDQEMLDQIDVVKGSFSTNGQFQVVIGQGTVNKVYAELVKETGIGESTKDEVKKASEKNMNPLQRAVKTLADI | soluble
10 | MGEQPIFTTRAHVFQIDPNTKKNWMPASKQAVTVSYFYDVTRNSYRIISVDGAKVIINSTITPNMTFTKTSQKFGQWADSRANTVFGLGFSSEQQLTKFAEKFQEVKEAAKIAKDKTQEKIETSSNHSQASSVNGTDDEKASHAGPANTHLKSENDKLKIALTQSAANVKKWEIELQTLRESNARLTTALQESAASVEQWKRQFSICRDENDRLRNKIDELEEQCSEINREKEKNTQLKRRIEELEAELREKETELKDLRKQSEIIPQLMSECEYVSEKLEAAERDNQNLEDKVRSLKTDIEESKYRQRHLKVELKSFLEVLDGKIDDLHDFRRGLSKLGTDN | not soluble
11 | MGEQPIFTTRAHVFQIDPSTKKNWVPASKQAVTVSYFYDVTRNSYRIISVDGAKVIINSTITPNMTFTKTSQKFGQWADSRANTVFGLGFSSELQLTKFAEKFQEVREAAR | soluble
12 | MGFKQDIATIRGDLRTYAQDIFLAFLNKYPDERRYFKNYVGKSDQELKSMAKFGDHTEKVFNLMMEVADRATDSVPLASDANTLVQMKQHSSLTTGNFEKLFVALVEYMRASGQSFDSQSWDRFGKNLVSALSSAGMK | soluble
13 | MGGGEVKMMSLLEEMKGIYSKKGGKVKPFEKFEGELKEGYRFEYEKKLCEIDVAMFGLISGDLNPVHFDEDFASKTRFGGRVVHGMLTTSLVSAAVARLPGTVVLLEQSFRYTSPVRIGDVVRVEGVVSGVEKNRYTIDVKCYTGDKVVAEGVVKVLIW | soluble
14 | MGHHHHHHGGHMSLDMKLQQVQVLKPQLTQELRQAITLLGYHSAELAEYIDELSLENPLIERKETDTPPLSYHKTNKNRMNAQEAGLQLSNPQKTLQDALKQQSLDMNLTNTEKKIFNYLIHSLDSNGYLEEDIEEAARRLSVSAKEAEAVLAKLQSLEPAGIGARSLQECILLQLQRLPNRNEQAEMLVSAHFDAFAQKKWKTLSVETGIPLHTIQDISDDIAALHPRPGLLFARPEQDVYIEPDIFITVKNGHIAAELNTRSFPEIDLHPQYRTLLSSGSCQDTVSYLSAKYQEWRWLSRALRQRKQTITRIINELITRQKDFFLKGRSAMKPLTLREVADCLSLHESTVSRAIKGKTIQTPYGLFEMKLFFSAKAEASGDGDASNYAVKTHLENLINQEDKTKPLSDQKLVDLLYEQHGIQISRRTVAKYRDQMNIPSSAARKRYKEGGS | soluble
15 | MGHHHHHHGGHMSLEEVLEAAEKIRSMEVRGAARIARFAAETLMKFAEKASDEKFDEEMRFAAETLLNTRPTAVSLYNAINYVMRYSGESVEEKRQSVIRRAREFINWVETAQRKIGEIGEKRIKDGYTVMTHCNSSAALSVIKKAHENGKRVEVIATESRPRWQGHLTVKQLREAGIEVTLIVDSAVRYFINEVDCVVVGADTITANGALINKIGTSQIALAAKEARVPFMVAAETYKFSPKTLFGELVVIEERDAREVAPEEILKLGVKVRNPAFDVTPRDYIDVIITEIGAIPPEMAYIVITERLGYAGIEEEEITLNSRHFDEGGS | soluble
16 | MGHHHHHHGGHMSLENLNSYIKGHFADSILVKEQILKDENLITLIKNASLEVIKAYKNGNKTLLAGNGGSAADAQHIAGEFVSRFYFDRPGIASIALTTDTSILTAIGNDYGYENLFARQVQAQGVKGDVFIGISTSGNSKNILKALEFCKQKEIISIGLSGASGGAMNELCDYCIKVPSTCTPRIQEAHILIGHIICAIVEEELFGKGFSCKQEGGS | soluble
17 | MGHHHHHHGGHMSLIAITGATGQLGHYVIESLMKTVPASQIVAIVRNPAKAQALAAQGITVRQADYGDEAALTSALQGVEKLLLISSSEVGQRAPQHRNVINAAKAAGVKFIAYTSLLHADTSPLGLADEHIETEKMLADSGIVYTLLRNGWYSENYLASAPAALEHGVFIGAAGDGKIASATRADYAAAAARVISEAGHEGKVYELAGDSAWTLTQLAAELTKQSGKQVTYQNLSEADFAAALKSVGLPDGLADMLADSDVGASKGGLFDDSKTLSKLIGHPTTTLAESVSHLFNVNNEGGS | soluble
18 | MGHHHHHHGGHMSLNSTSSPTIAVTAATGKLGQLVVSSLLERGVPADHIVAIVRNPAKAQGLFAPGVQIRQADYNSPEGWDRALAGVQRLLLISSSDLNDRADQHRTVIEAASAAGVELLAYTSLLKADTARMSLAADHQATEKLLTESGVPFVLLRNGWYLENYDLAQALQTGSVLGAAGTGRISAASRKDLAEAAAAALTRDGQAGKVYELAGDEAFSLSELAAELSKQSGKDVQYRNFAPEDYQRTLEGFGLPAPVAQMLVSSDEGVARGELELPNSDLRELIGRPSTSLKEAVASQLAEGGS | soluble
19 | MGHHHHHHSHDNLSVPLMEEDLDGSSGVLFPFYDADTSMLYVVGKGDGNIRYYEVSADKPHLSYLTEYRSYNPQKGIGVMPKRGLDVSSCEIFRFYKLITTKSLIEPISMIVPRRSESYQEDIYPPTAGAQPSLTAQEWLSGMNRDPILVSLRPGSELLRPHPLPAERPIFNSMAPASPRLLNQTEKLAAEDGWRSS | not soluble
20 | MGHHHHHHSHDTISHQLEWRSLKSQETTGAGEDVEKQEQLLHCWWDCKLVQPLRKSVWQFLRNLELEIPFDPAIPLLGRYPKDYKSCCYKDTCTRMFIAALFTIAKTWNQPKCPTTIDWIKKMWHIYTMEYYAAIKNDEFMSFVGTWMKLETIILSKLSQGQ | not soluble
21 | MGHHHHHHSHFRNCILGLAVGDALGMPVEGLSIENIRQLYGEVRDFLPSPYGDLNAGEWTDDTEQMVVLAESILETVYFDPENFAERLKRWFLETNSRRIGPSSTKAISNLMRGVHWTRAGVFSDTCGAAMRVAPIGLVYHFSLNLVERYAEISARVTHTGTAAIGGAVAVAVAIACNVLDFSDEEMLEEVLRRVEAYDNLLAEKIRYANEISDRDVEYAVEKLGNSISSLDVVPMAFYSYFAGKDFEESLIKAVNAGGDADSIAAICGAIKGAKGFAIPERWLEGLKDREFLEELATK | not soluble
22 | MGHHHHHHSHGVSAAVTSMSVPTPIYQTSSGQYIAIAPNGALQLASPGTDGVQGLQTLTMTNSGSTQQGTTILQYAQTSDGQQILVPSNQVVVQTASGDMQTYQIRTTPSATSLPQTVVMTSPVTLTSQTTKTDDPQLKREIRLMKNREAARECRRKKKEYVKCLENRVAVLENQNKTLIEELKTLKDLYSNKS | not soluble
23 | MGHHHHHHSHLTTKEDVFDAIVTLKVRGAPAIGITAAFGLALAAKDIETDNVTEFRRRLEDIKQYLNSSRPTAINLSWALERLSHSVENAISVNEAKTNLVHEAIQIQVEDEETCRLIGQNALQLFKKGDRIMTICNAGSIATSRYGTALAPFYLAKQKDLGLHIYACETRPVLQGSRLTAWELMQGGIDVTLITDSMAAHTMKEKQISAVIVGADRIAKNGDTANKIGTYGLAILANAFDIPFFVAAPLSTFDTKVKCGADIPIEERDPEEVRQISGVRTAPSNVPVFNPAFDITPHDLISGIITEKGIMTGNY | not soluble
24 | MGHHHHHHSHMAGAAEDARALFRAGVCAALEAWPALQIAVENGFGGVHSQEKAKWLGGAVEDYFMRNADLELDEVEDFLGELLTNEFDTVVEDGSLPQVSQQLQTMFHHFQRGDGAALREMASCITQRKCKVTATALKTARETDEDEDDVDSVEEMEVTATNDGAATDGVCPQPEPSDPDAQTIKEEDIVEDGWTIVRRKK | soluble
25 | MGHHHHHHSHMANCEGTDGDGTGCNGWFFVQAIVDKQTGDTVSEDEDENATDTGSDMVDFIDDATDICIQAERETAQVLLNMQQAQRDAQTVRALKRKYTDSIESSPLAKSPLQELSIWKWKLTRR | not soluble
26 | MGHHHHHHSHMAPGGLFLPYHSLPQPDFLASCPTRHLKLCQCPGILAENPHQFSPTFPPGKGSCQHGALPGQVSLKEAAHTEMSLSGQDLFPSPAHPPLQPFWLPFSLCLSTPFLVADNELRLPKGQICPLHVFVLANRVVLKLCANSVWEHSKGIT | not soluble
